Data published in US7101851 (dated 2006).
Bridges are numbered along the chain shown (N, C = ends). Where no end group is shown, it is not given here. [ ]: non-standard residue; d: D form. Pip = O=C(O)[C@@H]1CCCCN1; dPip = O=C(O)[C@H]1CCCCN1; hCys = N[C@@H](CCS)C(=O)O; NMeA = CN[C@@H](C)C(=O)O

T1: alpha subunit of the human FcεRI receptor (IgE high affinity receptor), expressed on Chinese hamster ovary … (human, UniProt P12319 26-257)
T1 construct: whole, on cells; also called CHO FcεRI+ cells; FcεRIα
T1 sequence (looked up): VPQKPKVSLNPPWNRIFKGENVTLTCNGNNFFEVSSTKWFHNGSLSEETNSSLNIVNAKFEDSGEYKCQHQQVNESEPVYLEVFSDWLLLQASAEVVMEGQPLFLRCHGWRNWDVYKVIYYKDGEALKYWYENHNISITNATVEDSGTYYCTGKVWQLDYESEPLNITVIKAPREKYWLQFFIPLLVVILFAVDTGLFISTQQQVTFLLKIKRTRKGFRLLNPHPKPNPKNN

B1: IGE161-2 (peptide)
peptide: VQCPHFCYFGGAELC[Pip]DVCYV-NH2
modifications: disulfide 7-15, 3-19
B2: IGE166 (peptide)
peptide: VQCPHF[hCys]YFGGAELCPDVCYV-NH2
modifications: disulfide 7-15, 3-19
B3: IGE162-2 (peptide)
peptide: VQC[Pip]HFCYFGGAELCPDVCYV-NH2
modifications: disulfide 7-15, 3-19
B4: IGE161-1 (peptide)
peptide: VQCPHFCYFGGAELC[dPip]DVCYV-NH2
modifications: disulfide 7-15, 3-19
B5: IGE158 (peptide)
peptide: VQCPHFCYFGGAELC[NMeA]DVCYV-NH2
modifications: disulfide 7-15, 3-19; N-terminus assumed
SMILES: CC(C)C[C@@H]1NC(=O)[C@H](CCC(=O)O)NC(=O)[C@H](C)NC(=O)CNC(=O)CNC(=O)[C@H](Cc2ccccc2)NC(=O)[C@H](Cc2ccc(O)cc2)NC(=O)[C@@H]2CSSC[C@H](NC1=O)C(=O)N(C)[C@@H](C)C(=O)N[C@@H](CC(=O)O)C(=O)N[C@@H](C(C)C)C(=O)N[C@H](C(=O)N[C@@H](Cc1ccc(O)cc1)C(=O)N[C@H](C(N)=O)C(C)C)CSSC[C@H](NC(=O)[C@H](CCC(N)=O)NC(=O)[C@@H](N)C(C)C)C(=O)N1CCC[C@H]1C(=O)N[C@@H](Cc1c[nH]cn1)C(=O)N[C@@H](Cc1ccccc1)C(=O)N2
B6: IGE162-1 (peptide)
peptide: VQC[dPip]HFCYFGGAELCPDVCYV-NH2
modifications: disulfide 7-15, 3-19
B7: IGE167 (peptide)
peptide: VQCPHFCYFGAELCPDVCYV-NH2
modifications: disulfide 7-14, 3-18; N-terminus assumed
SMILES: CC(C)C[C@@H]1NC(=O)[C@H](CCC(=O)O)NC(=O)[C@H](C)NC(=O)CNC(=O)[C@H](Cc2ccccc2)NC(=O)[C@H](Cc2ccc(O)cc2)NC(=O)[C@@H]2CSSC[C@H](NC1=O)C(=O)N1CCC[C@H]1C(=O)N[C@@H](CC(=O)O)C(=O)N[C@@H](C(C)C)C(=O)N[C@H](C(=O)N[C@@H](Cc1ccc(O)cc1)C(=O)N[C@H](C(N)=O)C(C)C)CSSC[C@H](NC(=O)[C@H](CCC(N)=O)NC(=O)[C@@H](N)C(C)C)C(=O)N1CCC[C@H]1C(=O)N[C@@H](Cc1c[nH]cn1)C(=O)N[C@@H](Cc1ccccc1)C(=O)N2
B8: IGE165 (peptide)
peptide: VQCPHFCYFGGAELCPDV[hCys]YV-NH2
modifications: disulfide (positions not given here)
B9: IGE157 (peptide)
peptide: QCPHFCYELDYELCPDVCY-NH2
modifications: not fully specified (bridges); cysteine pairing not given here
B10: IGE159 (peptide)
peptide: VQC[NMeA]HFCYFGGAELCPDVCYV-NH2
modifications: disulfide 7-15, 3-19; N-terminus assumed
SMILES: CC(C)C[C@@H]1NC(=O)[C@H](CCC(=O)O)NC(=O)[C@H](C)NC(=O)CNC(=O)CNC(=O)[C@H](Cc2ccccc2)NC(=O)[C@H](Cc2ccc(O)cc2)NC(=O)[C@@H]2CSSC[C@H](NC1=O)C(=O)N1CCC[C@H]1C(=O)N[C@@H](CC(=O)O)C(=O)N[C@@H](C(C)C)C(=O)N[C@H](C(=O)N[C@@H](Cc1ccc(O)cc1)C(=O)N[C@H](C(N)=O)C(C)C)CSSC[C@H](NC(=O)[C@H](CCC(N)=O)NC(=O)[C@@H](N)C(C)C)C(=O)N(C)[C@@H](C)C(=O)N[C@@H](Cc1c[nH]cn1)C(=O)N[C@@H](Cc1ccccc1)C(=O)N2
B11: IGE164 (peptide)
peptide: VQCPHFCYFGGAEL[hCys]PDVCYV-NH2
modifications: disulfide (positions not given here)

Biological target: T1, alpha subunit of the human FcεRI …
Assay: inhibition of 125I-IgE binding to CHO cells expressing human FcεRI alpha; competitor IgE
Method: To determine the ability of peptides to inhibit IgE binding to FcεRI, a cell-based binding assay was used with radiolabeled IgE. Chinese hamster ovary cells expressing the alpha subunit of the human FcεRI receptor were cultured overnight in Falcon 96 well microtiter plates at a concentration of 5 ×10^4 cells per well. The following day the cells were rinsed three times with PBS and then once with F12/DMEM. Peptide stocks were reconstituted in 100 mM Hepes buffered water, pH 7.2, at a concentration of 5 mg/mL. Working concentrations of the peptide were diluted in assay buffer (see below). 75 uL of a desired concentration of peptide was added to the top row of a separate 96 well microtiter plate and serially diluted 1:3 in 50 uL of the assay buffer (F12/DMEM, 1% BSA, 0.05% NaN_3 and 0.025 mM Hepes pH 7.2). Starting concentrations ranged from 50–500 uM. Next, 50 uL of the diluted peptide was transferred to the 96 microtiter well plate containing a monolayer of CHO FcεRI+ cells. […] Cells were […]

**Q.** B1 was tested. Which IC50 did it give?
**A.** 680 nM

**Q.** B2 was tested. Which IC50 did it give?
**A.** 65000 nM

**Q.** With B3 as the binder, how does the IC50 read?
**A.** 430 nM

**Q.** B4 was tested. Which IC50 did it give?
**A.** 41000 nM

**Q.** For B5, which IC50 is on record?
**A.** 1080 nM

**Q.** Which IC50 does the source give for B6 here?
**A.** 4090 nM

**Q.** Which IC50 does the source give for B7 here?
**A.** 120 nM

**Q.** How did the IC50 turn out when B8 was run?
**A.** 1170 nM

**Q.** With B9 as the binder, how does the IC50 read?
**A.** 107 nM

**Q.** B10 was tested. Which IC50 did it give?
**A.** 380 nM

**Q.** How did the IC50 turn out when B11 was run?
**A.** 40700 nM
